Data taken from the RNAGym collection of RNA variant scans (doi:10.7554/elife.80360).

B1: HDV Ribozyme (parent)
chain: GGCCGGCAUGGUCCCAGCCUCCUCGCUGGCGCCGGCUGGGCAACAUUCCGAGGGGACCGUCCCCUCGGUAAUGGCGAAUGGGACCCA

Variants of: B1
Experiment: self-cleavage, relative activity (ratio to wild type); higher = more cleavage; co-transcriptional

Variant | self-cleavage
GGCCGGCAUGGUCCCAGCCUCCUCGCUGGCGCCGGCUGGGCAAUAUUCCGAGGGGACCGUCCCCUCGGUAAAGGCGAAUGGGACCCA [C44U U72A] | 0.678
GGCCGGCAUGGUCCCAGCCUCCUCGCUGGCGCCGGCUGGGCAAUAUUCCGAUGGGACCGUCCCCUCGGUAAUGGCGAAUGGGACCCA [C44U G52U] | 0.82
GGCCGGCAUGGUCCCAGCCUCCUCGCUGGCGCCGGCUGGGCAAUAUUCCGAGGGGGCCGUCCCCUCGGUAAUGGCGAAUGGGACCCA [C44U A56G] | 0.939
GGCCGGCAUGGUCCCAGCCUCCUCGCUGGCGCCGGCUGGGCAAUAUUCCGAGGGGCCCGUCCCCUCGGUAAUGGCGAAUGGGACCCA [C44U A56C] | 1.04
GGCCGGCAUGGUCCCAGCCUCCUCGCUGGCGCCGGCUGGGCAAUAUUCCGAGGGGACCGUCCCCUCGGUAAUGGCGCAUGGGACCCA [C44U A77C] | 0.277
GGCCGGCAUGGUCCCAGCCUCCUCGCUGGCGCCGGCUGGGCAAGAUUCCGAGGGGACCGUCCCCUCGGUAACGGCGAAUGGGACCCA [C44G U72C] | 0.198
GGCCGGCAUGGUCCCAGCCUCCUCGCUGGCGCCGGCUGGGCAAUAUUCCGAGGGGACCGUUCCCUCGGUAAUGGCGAAUGGGACCCA [C44U C61U] | 0.716
GGCCGGCAUGGUCCCAGCCUCCUCGCUGGCGCCGGCUGGGCAAUAUUCCGAGGGGACCGUACCCUCGGUAAUGGCGAAUGGGACCCA [C44U C61A] | 0.751
GGCCGGCAUGGUCCCAGCCUCCUCGCUGGCGCCGGCUGGGCAAGAUUCCGAGGGGACUGUCCCCUCGGUAAUGGCGAAUGGGACCCA [C44G C58U] | 0.751
GGCCGGCAUGGUCCCAGCCUCCUCGCUGGCGCCGGCUGGGCAAUAUUCCGAGGGGACCGUCCCCUCGGUAAUGGCGAAUGGUACCCA [C44U G82U] | 0.282
GGCCGGCAUGGUCCCAGCCUCCUCGCUGGCGCCGGCUGGGCAAUAUUCCGAGGGGACCGUCCCCUCGGUAAUGGCGAAUGGAACCCA [C44U G82A] | 0.363
GGCCGGCAUGGUCCCAGCCUCCUCGCUGGCGCCGGCUGGGCAAUAUUCCGAGGGGACGGUCCCCUCGGUAAUGGCGAAUGGGACCCA [C44U C58G] | 0.712
GGCCGGCAUGGUCCCAGCCUCCUCGCUGGCGCCGGCUGGGCAAGAUUCCGAGGGGACCGUCACCUCGGUAAUGGCGAAUGGGACCCA [C44G C62A] | 0.875
GGCCGGCAUGGUCCCAGCCUCCUCGCUGGCGCCGGCUGGGCAAGAUUCCUAGGGGACCGUCCCCUCGGUAAUGGCGAAUGGGACCCA [C44G G50U] | 0.767
GGCCGGCAUGGUCCCAGCCUCCUCGCUGGCGCCGGCUGGGCAAGAUUCCCAGGGGACCGUCCCCUCGGUAAUGGCGAAUGGGACCCA [C44G G50C] | 0.739
GGCCGGCAUGGUCCCAGCCUCCUCGCUGGCGCCGGCUGGGCAAGAUUCCGAGGGGACCGUCCCAUCGGUAAUGGCGAAUGGGACCCA [C44G C64A] | 0.745

Variant | self-cleavage
GGCCGGCAUGGUCCCAGCCUCCUCGCUGGCGCCGGCUGGGCAAUAUUCCGAGGGGACCGUCCCCUCGGUAAUGGCGAAUGGGAACCA [C44U C84A] | 0.614
GGCCGGCAUGGUCCCAGCCUCCUCGCUGGCGCCGGCUGGGCAACCUUCCGAGGGGACCGUCCCCUCGGUAAUGGCGAAUGGGGCCCA [A45C A83G] | 0.23
GGCCGGCAUGGUCCCAGCCUCCUCGCUGGCGCCGGCUGGGCAAUAUUCCGAGGGGACCAUCCCCUCGGUAAUGGCGAAUGGGACCCA [C44U G59A] | 0.819
GGCCGGCAUGGUCCCAGCCUCCUCGCUGGCGCCGGCUGGGCAAUAUUCCGAGGGGACCUUCCCCUCGGUAAUGGCGAAUGGGACCCA [C44U G59U] | 0.854
GGCCGGCAUGGUCCCAGCCUCCUCGCUGGCGCCGGCUGGGCAAGAUUCCGAGGGGACCGUCCCCUCGGUAAUGGCGAAUAGGACCCA [C44G G80A] | 0.223
GGCCGGCAUGGUCCCAGCCUCCUCGCUGGCGCCGGCUGGGCAAUAUUCCGAGGGGACCGUCCCCGCGGUAAUGGCGAAUGGGACCCA [C44U U65G] | 0.812
GGCCGGCAUGGUCCCAGCCUCCUCGCUGGCGCCGGCUGGGCAAUAUUCCGAGGGGACCGUCCCCUCGGUAAUGGCGAAUGGGACUCA [C44U C85U] | 0.954
GGCCGGCAUGGUCCCAGCCUCCUCGCUGGCGCCGGCUGGGCAAUAUUCCGAGGGGACCGUCCCCUCGGUAAUGGCGAAUGGGACACA [C44U C85A] | 0.814
GGCCGGCAUGGUCCCAGCCUCCUCGCUGGCGCCGGCUGGGCAAUAUUCCGAGGGGACCGUCGCCUCGGUAAUGGCGAAUGGGACCCA [C44U C62G] | 0.464
GGCCGGCAUGGUCCCAGCCUCCUCGCUGGCGCCGGCUGGGCAAUAUUCCGAGGGGACCGUCCCCUCGGUAAUGGCGAAUGGGCCCCA [C44U A83C] | 0.314
GGCCGGCAUGGUCCCAGCCUCCUCGCUGGCGCCGGCUGGGCAACCUUCCGAGGGGGCCGUCCCCUCGGUAAUGGCGAAUGGGACCCA [A45C A56G] | 0.615
GGCCGGCAUGGUCCCAGCCUCCUCGCUGGCGCCGGCUGGGCAAGAUUCCGAGGGGACCGUCCCCUCGGUAAUGCCGAAUGGGACCCA [C44G G74C] | 0.185
GGCCGGCAUGGUCCCAGCCUCCUCGCUGGCGCCGGCUGGGCAAGAUUCCGAGGCGACCGUCCCCUCGGUAAUGGCGAAUGGGACCCA [C44G G54C] | 0.831
GGCCGGCAUGGUCCCAGCCUCCUCGCUGGCGCCGGCUGGGCAAGAUUCCGAGGAGACCGUCCCCUCGGUAAUGGCGAAUGGGACCCA [C44G G54A] | 0.831
GGCCGGCAUGGUCCCAGCCUCCUCGCUGGCGCCGGCUGGGCAAGAUUCCGAGGGGACCGUCCCCUCGGUAAUGGCGAAUGGGACCCU [C44G A87U] | 0.675
GGCCGGCAUGGUCCCAGCCUCCUCGCUGGCGCCGGCUGGGCAAUGUUCCGAGGGGACCGUCCCCUCGGUAAUGGCGAAUGGGACCCA [C44U A45G] | 0.739
